The values below come from patent publication WO2017046774A2 (dated 2017).

Residue numbers refer to the chain shown, from its start.

Assay [1] concerns the target T1, human MCAM C272A mutant (shotgun mutagenesis library clone, on cells) (human, UniProt P43121 24-646).
T1 construct: Expressed in BHK cells, immunodetection
T1 chain: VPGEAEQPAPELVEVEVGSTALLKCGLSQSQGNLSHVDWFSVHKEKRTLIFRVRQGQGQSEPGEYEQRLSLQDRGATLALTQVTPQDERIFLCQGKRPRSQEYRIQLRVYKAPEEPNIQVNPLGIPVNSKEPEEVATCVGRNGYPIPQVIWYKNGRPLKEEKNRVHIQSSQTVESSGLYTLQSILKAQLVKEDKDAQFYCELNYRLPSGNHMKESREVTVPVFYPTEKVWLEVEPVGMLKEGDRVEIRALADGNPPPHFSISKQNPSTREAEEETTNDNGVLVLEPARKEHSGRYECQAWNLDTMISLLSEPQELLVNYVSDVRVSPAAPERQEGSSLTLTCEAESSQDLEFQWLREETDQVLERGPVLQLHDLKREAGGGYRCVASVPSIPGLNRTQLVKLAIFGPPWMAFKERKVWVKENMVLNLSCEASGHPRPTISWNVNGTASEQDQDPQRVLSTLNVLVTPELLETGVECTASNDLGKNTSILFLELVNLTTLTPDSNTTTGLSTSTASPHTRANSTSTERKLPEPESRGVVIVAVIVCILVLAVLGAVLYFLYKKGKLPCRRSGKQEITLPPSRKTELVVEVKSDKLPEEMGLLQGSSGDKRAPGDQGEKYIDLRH
In words: shotgun mutagenesis library, immunodetection on BHK cells, normalized to wild type MCAM.

The target of a further assay is T2, recombinant laminin 511 (UniProt O15230 36-3695; P07942 22-1786; P11047 34-1609).
T2 construct: also called laminin 10 (α5β1γ1)
As to the kind of experiment: flow cytometry on CHO cells transfected with human MCAM, pan-laminin antibody.

B1: mouse anti-human MCAM monoclonal antibody clone 1749.1.3 (antibody, V domains shown)
VH: DVKLVESGGDLVKPGGSLKLSCAASGFTFSSYIMSWVRQTPEKRLEWVATISSGGSSTYYPDSVKGRFTISRDNAKNTLYLQMSSLKSEDTAMYYCTRDDDYDVKVFAYWGQGTLVTVSA
VL: DIVMSQSPSSLAVSAGEKVTMNCKSSRSLLNSRIRKNYLAWYQQKPGQSPKLLIYWASTRESGVPDRFTGSGSGTDFTLTISSVQAEDLAVYYCKQSYNLLTFGAGTKLELK
notes: Mouse hybridoma monoclonal antibody; also called m1749
On to B1, for which the “mean monoclonal antibody reactivity (% WT)” value in assay [1] is under 30 % WT.

B2: human MCAM (full length, expressed on the surface of transfected cells) (receptor)
chain: T1 chain with A249C
notes: also called CD146; MUC18
Take B2: in the assay with recombinant laminin 511, the binding result was “no binding (tested: 10 μg/ml)”.
